According to patent US7588931B2, “High arachidonic acid producing strains of Yarrowia lipolytica” (E. I. du Pont de Nemours and Company, priority 2004, dated 2009):

B1: GPDIN: glyceraldehyde-3-phosphate dehydrogenase + intron promoter, SEQ ID NO:159 (nucleic acid, listed as Yarrowia lipolytica)
DNA: AAACACGCAGTAGGATGTCCTGCACGGGTCTTTTTGTGGGGTGTGGAGAAAGGGGTGCTTGGAGATGGAAGCCGGTAGAACCGGGCTGCTTGTGCTTGGAGATGGAAGCCGGTAGAACCGGGCTGCTTGGGGGGATTTGGGGCCGCTGGGCTCCAAAGAGGGGTAGGCATTTCGTTGGGGTTACGTAATTGCGGCATTTGGGTCCTGCGCGCATGTCCCATTGGTCAGAATTAGTCCGGATAGGAGACTTATCAGCCAATCACAGCGCCGGATCCACCTGTAGGTTGGGTTGGGTGGGAGCACCCCTCCACAGAGTAGAGTCAAACAGCAGCAGCAACATGATAGTTGGGGGTGTGCGTGTTAAAGGAAAAAAAAGAAGCTTGGGTTATATTCCCGCTCTATTTAGAGGTTGCGGGATAGACGCCGACGGAGGGCAATGGCGCTATGGAACCTTGCGGATATCCATACGCCGCGGCGGACTGCGTCCGAACCAGCTCCAGCAGCGTTTTTTCCGGGCCATTGAGCCGACTGCGACCCCGCCAACGTGTCTTGGCCCACGCACTCATGTCATGTTGGTGTTGGGAGGCCACTTTTTAAGTAGCACAAGGCACCTAGCTCGCAGCAAGGTGTCCGAACCAAAGAAGCGGCTGCAGTGGTGCAAACGGGGCGGAAACGGCGGGAAAAAGCCACGGGGGCACGAATTGAGGCACGCCCTCGAATTTGAGACGAGTCACGGCCCCATTCGCCCGCGCAATGGCTCGCCAACGCCCGGTCTTTTGCACCACATCAGGTTACCCCAAGCCAAACCTTTGTGTTAAAAAGCTTAACATATTATACCGAACGTAGGTTTGGGCGGGCTTGCTCCGTCTGTCCAAGGCAACATTTATATAAGGGTCTGCATCGCCGGCTCAATTGAATCTTTTTTCTTCTTCTCTTCTCTATATTCATTCTTGAATTAAACACACATCAACATGGCCATCAAAGTCGGTATTAACGGATTCGGGCGAATCGGACGAATTGTGAGTACCATAGAAGGTGATGGAAACATGACCCAACAGAAACAGATGACAAGTGTCATCGACCCACCAGAGCCCAATTGAGCTCATACTAACAGTCGACAACCTGTCGAACCAATTGATGACTCCCCGACAATGTACTAACACAGGTCCTGCCC
modifications: misc_feature: Promoter GPDIN
B2: GPD: Y. lipolytica glyceraldehyde-3-phosphate dehydrogenase promoter, SEQ ID NO:158 (nucleic acid, listed as Yarrowia lipolytica)
DNA: GACGCAGTAGGATGTCCTGCACGGGTCTTTTTGTGGGGTGTGGAGAAAGGGGTGCTTGGAGATGGAAGCCGGTAGAACCGGGCTGCTTGTGCTTGGAGATGGAAGCCGGTAGAACCGGGCTGCTTGGGGGGATTTGGGGCCGCTGGGCTCCAAAGAGGGGTAGGCATTTCGTTGGGGTTACGTAATTGCGGCATTTGGGTCCTGCGCGCATGTCCCATTGGTCAGAATTAGTCCGGATAGGAGACTTATCAGCCAATCACAGCGCCGGATCCACCTGTAGGTTGGGTTGGGTGGGAGCACCCCTCCACAGAGTAGAGTCAAACAGCAGCAGCAACATGATAGTTGGGGGTGTGCGTGTTAAAGGAAAAAAAAGAAGCTTGGGTTATATTCCCGCTCTATTTAGAGGTTGCGGGATAGACGCCGACGGAGGGCAATGGCGCCATGGAACCTTGCGGATATCGATACGCCGCGGCGGACTGCGTCCGAACCAGCTCCAGCAGCGTTTTTTCCGGGCCATTGAGCCGACTGCGACCCCGCCAACGTGTCTTGGCCCACGCACTCATGTCATGTTGGTGTTGGGAGGCCACTTTTTAAGTAGCACAAGGCACCTAGCTCGCAGCAAGGTGTCCGAACCAAAGAAGCGGCTGCAGTGGTGCAAACGGGGCGGAAACGGCGGGAAAAAGCCACGGGGGCACGAATTGAGGCACGCCCTCGAATTTGAGACGAGTCACGGCCCCATTCGCCCGCGCAATGGCTCGCCAACGCCCGGTCTTTTGCACCACATCAGGTTACCCCAAGCCAAACCTTTGTGTTAAAAAGCTTAACATATTATACCGAACGTAGGTTTGGGCGGGCTTGCTCCGTCTGTCCAAGGCAACATTTATATAAGGGTCTGCATCGCCGGCTCAATTGAATCTTTTTTCTTCTTCTCTTCTCTATATTCATTCTTGAATTAAACACACATCAACATG
modifications: misc_feature: Promoter GPD

Experiments:
Assay type in all cases: cell-based, Yarrowia lipolytica
[1] = tested on: β-glucuronidase (GUS) reporter; test: Relative promoter activity rank from comparative GUS reporter studies (histochemical, fluorometric and/or Real Time PCR); conditions: relative to other promoters
Method: The activity of GPM is about the same as TEF, while the activity of GPD, FBA, FBAIN, FBAINm, GPDIN, GPAT, YAT1 and EXP1 are all greater than TEF (activity is quantified in a relative manner in the column titled “Activity Rank”, wherein a ‘1’ corresponds to the promoter with lowest activity, while a ‘7’ corresponds to the promoter with highest activity). […] GUS activity in each expressed construct was measured by histochemical and/or fluorometric assays (Jefferson, R. A. Plant Mol. Biol. Reporter 5:387-405 (1987)) and/or by use of Real Time PCR.

GUS mRNA = test: Comparative analysis of promoters by quantitative (Real Time) PCR of GUS mRNA; conditions: for transcription activity relative to the TEF promoter: after 24 hrs in HGM, ATCC #76982 strains
Method: The transcriptional activities of the TEF, GPD, GPDIN, FBA and FBAIN promoters were determined in Y. lipolytica containing the pY5-30, PYZGDG, pDMW222, pDMW212 and pDMW214 constructs by quantitative PCR analyses. This required isolation of RNA and real time RT-PCR.
More specifically, Y. lipolytica ATCC #76982 strains containing pY5-30, PYZGDG, pDMW222, pDMW212 and pDMW214 were grown from single colonies in 6 mL of MM in 25 mL Erlenmeyer flasks for 16 hrs at 30° C. Each of the 6 mL starter cultures was then added to individual 500 mL flasks containing 140 mL HGM and incubated at 30° C. for 4 days. In each interval of 24 hrs, 1 mL of each culture was removed from each flask to measure the optical density, 27 mL was removed and used for a fluorometric GUS assay (as described above), and two aliquots of 1.5 mL were removed for RNA isolation. The culture for RNA isolation was centrifuged to produce a cell pellet.
The RNA was isolated from Yarrowia strains according to the modified Qiagen RNeasy mini protocol (Qiagen, San Diego, Calif.). Briefly, at each time point for each sample, 340 μL of Qiagen's buffer RLT was used to resuspend each of the two cell pellets. The buffer RLT/cell suspension mixture from each of the two tubes was combined in a bead beating tube (Bio101, San Diego, Calif.). About 500 μL of […] glass beads was added to the tube and the cells were disrupted by bead beating 2 min at setting 5 (BioPulverizer, Bio101 Company, San Diego, Calif.). The disrupted cells were then pelleted by centrifugation at 14,000 rpm for 1 min and 350 μl of the supernatent was transferred to a new microcentrifuge tube. Ethanol (350 μL of 70%) was added to each homogenized lysate. After gentle mixing, the entire sample was added to a RNeasy mini column in a 2 mL collection tube. The sample was centrifuged for 15 sec at 10,000 rpm. Buffer RW1 (350 μL) was added to the RNeasy mini column and the column was centrifuged for 15 sec at 10,000 rpm to wash the cells. The eluate was discarded. Qiagen's DNasel stock solution (10 μL) was added to 70 μl of Buffer RDD and gently mixed. This entire DNase solution was added to the RNeasy mini column and incubated at room temperature for 15 min. After the incubation step, 350 μL of Buffer RW1 was added to the mini column and the column was centrifuged for 15 sec at 10,000 rpm. The column was washed twice with 700 μL […]. RNase-free water (50 μL) was added to the column. The column was centrifuged for 1 min at 10,000 rpm to elute the RNA.
A two-step RT-PCR protocol was used, wherein total Yarrowia RNA was first converted to cDNA and then cDNA was analyzed using Real Time PCR. The conversion to cDNA was performed using Applied Biosystems' High Capacity cDNA Archive Kit (PN#4322171; Foster City, Calif.) and Molecular Biology Grade water from MediaTech, Inc. (PN# 46-000-Con; Holly Hill, Fla.). Total RNA from Yarrowia (100 ng) was converted to cDNA by combining it with 10 μl of RT buffer, 4 μl of 25×dNTPs, 10 μl 10× Random Hexamer primers, 5 μl Multiscribe Reverse Transcriptase and 0.005 μl RNase Inhibitor, and brought to a total reaction volume of 100 μl with water. The reactions were incubated in a thermocycler for 10 min at 25° C. followed by 2 hrs at 37° C. The cDNA was stored at −20° C. prior to Real Time analysis.
Real Time analysis was performed using the SYBR Green PCR Master Mix from Applied Biosystems (PN# 4309155). The Reverse Transcription reaction (2 μl) was added to 10 μl of 2×SYBR PCR Mix, 0.2 μl of 100 μM Forward and Reverse primers for either URA (i.e., primers YL-URA-16F and YL-URA-78R [SEQ ID NOs:183 and 184]) or GUS (i.e., primers GUS-767F and GUS-891R [SEQ ID NO:185 and 186]) and 7.2 μl water. The reactions were thermocycled for 10 min at 95° C. followed by 40 cycles of 95° C. for 5 sec and 60° C. for 1 min in an ABI 7900 Sequence Detection System instrument. Real time fluorescence data was collected during the 60° C. extension during each cycle. […]

[2] = tested on: β-glucuronidase (GUS) reporter; test: Comparative analysis of promoters by histochemical analysis of GUS expression; conditions: ATCC #76982 strains, MM, FIG. 5B
Method: Comparative studies investigating the promoter activities of the TEF, GPD, GPDIN, GPM, GPAT, FBA, FBAIN and YAT1 promoters were performed, by synthesizing constructs comprising each promoter and the E. coli gene encoding β-glucuronidase (GUS) as a reporter gene (Jefferson, R. A. Nature. 14(342):837-838 (1989)). Then, GUS activity was measured by histochemical and fluorometric assays (Jefferson, R. A. Plant Mol. Biol. Reporter 5:387-405 (1987)) and/or by using Real Time PCR for mRNA quantitation.
Yarrowia lipolytica ATCC #76982 strains containing plasmids pY5-30, pYZGDG, pYZGMG, pDMW212 and pDMW214 were grown from single colonies in 3 mL MM at 30° C. to an OD600˜1.0. Then, 100 μl of cells were collected by centrifugation, resuspended in 100 μl of histochemical staining buffer, and incubated at 30° C. Staining buffer was prepared by dissolving 5 mg of 5-bromo-4-chloro-3-indolyl glucuronide (X-Gluc) in 50 μl dimethyl formamide, followed by the addition of 5 mL 50 mM NaPO4, pH 7.0.
In a separate experiment, Y. lipolytica Y2034 strains containing plasmids pY5-30, pYGPAT-GUS, pYAT-GUS and pDMW214 were grown from single colonies in 5 mL SD media at 30° C. for 24 hrs to an OD600˜8.0. Then, 1 mL of cells were collected by centrifugation. The remaining cultures were centrifuged and washed 2× with HGM, resuspended in 5 mL each of HGM and allowed to grow at 30° C. further. After 24 and 120 hrs, ˜0.25 mL of each culture were centrifuged to collect the cells. Cell samples were resuspended individually in 100 μl of histochemical staining buffer (supra). Zymolase 20T (5 μl of 1 mg/mL; ICN Biomedicals, Costa Mesa, Calif.) was added to each, and the mixture incubated at 30° C. […]

Molecule | Activity “Rank” [1] | transcription activity relative to the TEF promoter (GUS mRNA) | transcriptional activity relative to the TEF promoter (GUS mRNA; final day of the 4 day experiment in HGM) [times] | promoter activity by histochemical staining [2]
B1 | 3 | ~4.4 times | ~2.6 | –
B2 | 2 | about 2 times | – | active
